# B1: recombinant Mn oxidase complex: recombinantly produced Bacillus sp. PL-12 manganese oxidase complex comprising MnxG, MnxE and MnxF, expressed in E. coli (protein, listed as Bacillus sp.)
# chain 1: HVFHYHVHQWLGDSSNINAEILDAQSISPQTHYSIQPLYGLGSLHGAIGDSIIHCHLYPHFGIGMWGINRVFDTLQDGSQCYPNGVRIDALKPLPDRPAPPKPTREKPGFPNFIPGKVGYKAPRPPLGIVGGREMTELERNAAIPNPRPGAVFVDPCLDQDPVVVEFNVSAIEMPVVYNKQGWHDPKARFYVMDEDLDDILSGKKEPEPLVFHVPAGTCIRMNYTNRMPHILDGDAFQLVTRTYENGFHIHFVKFDVLACDGGNVGWNYDSAVLPGQTIRYEWYAETELKAWFFHDHLF
# chain 2: MHDSPLKSLSAASNVASVNDPLFDFFNKHMGKQILIITESSQLNILGQTFRPIFCGKVAEVEPGHLTLSPVTIKILNAPFHKFPIPLSIPFEKIAHFTTDVDCSMRIPLV
# chain 3: MEALFPMSTDYSKMTDVNEIHDSAILEHFRNGIGHKTLVISPSYPYMFVGIIKELIGDTVMIDVETTHFAQLENREWYIHIHNIEVFYIERPGAPKIPKLEDY
# Tests used:
# B. licheniformis CotA = conditions: described in Koschorreck K et al, 2008; cited from earlier work
# Bacillus subtilis CotA = conditions: described in Durão P et al, 2008; cited from earlier work
# [1] = Fe(II) oxidation kinetics, FerroZine quench assay; format: biochemical; conditions: pH 5
# Procedure: (§1) Kinetic experiments were performed on the Molecular Devices SpectraMax® M2 microplate reader spectrophotometer at 22° C. with purified protein. […] Reactions were carried out with 10 μg Mnx (final 240 nM) 100 mM in phosphate-citrate buffer pH 3-8 and 20 mM CHES, HEPES, and MES at pH 7-10. Dimethoxyphenol (DMP) oxidation was followed by measuring the increase in absorbance at 468 nm and ε=49.6 mM-1 cm-1. These assays were performed in at least two independent trials in triplicate. Fe(II) (ferrous ammonium sulfate) oxidation was measured by quenching 200 μl reactions with 50 μl of the Fe(II) chelating colorimetric assay FerroZine® (15 mM) and a ferrous ammonium sulfate standard curve, noting the absorbance at 570 nm. Fe(II) oxidation reactions were performed with 10 μg recombinant Mn oxidase complex in 100 mM Na acetate-acetic acid buffer (pH 4-5.5). Mn(II) (MnCl2) oxidation in 20 mM HEPES (pH 7-8.5) was measured by quenching 5 μl of 200 μl reactions with 195 μl leucoberbelin blue (LBB) colorimetric reagent and reading the absorbance at 618 nm. […] These slopes were converted to the appropriate kinetic units, plotted, and fit with nonlinear regressions determined by comparing best fit values in the same software. KM and Vmax were determined and reported as KM and kcat=Vmax/[enzyme].
# [2] = 2,6-DMP oxidation kinetics, absorbance at 468 nm; format: biochemical; conditions: Phosphate-citrate buffer
# Procedure: as §1
# [3] = Mn(II) oxidation kinetics, leucoberbelin blue (LBB) quench assay; format: biochemical
# Procedure: Kinetic experiments were performed on the Molecular Devices SpectraMax® M2 microplate reader spectrophotometer at 22° C. with purified protein. […] Reactions were carried out with 10 μg Mnx (final 240 nM) 100 mM in phosphate-citrate buffer pH 3-8 and 20 mM CHES, HEPES, and MES at pH 7-10. Dimethoxyphenol (DMP) oxidation was followed by measuring the increase in absorbance at 468 nm and ε=49.6 mM-1 cm-1. These assays were performed in at least two independent trials in triplicate. Fe(II) (ferrous ammonium sulfate) oxidation was measured by quenching 200 μl reactions with 50 μl of the Fe(II) chelating colorimetric assay FerroZine® (15 mM) and a ferrous ammonium sulfate standard curve, noting the absorbance at 570 nm. Fe(II) oxidation reactions were performed with 10 μg recombinant Mn oxidase complex in 100 mM Na acetate-acetic acid buffer (pH 4-5.5). Mn(II) (MnCl2) oxidation in 20 mM HEPES (pH 7-8.5) was measured by quenching 5 μl of 200 μl reactions with 195 μl leucoberbelin blue (LBB) colorimetric reagent and reading the absorbance at 618 nm. Working LBB reagent was prepared by diluting concentrated stock (100 mg LBB in 25 ml 0.4% NaOH) 1:10 into 1% acetic acid. A KMnO4 standard curve was used to determine MnO2 oxide equivalent concentration. The metal substrate assays were performed in five independent trials then the high and low values were discarded from each concentration. The linear part of each curve was fit plotted and fit with a linear regression in GraphPad Prism®. These slopes were converted to the appropriate kinetic units, plotted, and fit with nonlinear regressions determined by comparing best fit values in the same software. KM and Vmax were determined and reported as KM and kcat=Vmax/[enzyme].
# [4] = O2 consumption during Mn oxidation, Clark type electrode; format: biochemical; conditions: for lag time before O2 consumption is detected: after addition of MnCl2, across all runs
# Procedure: Also indicative of MCOs is the consumption of O2 and its reduction to H2O, terminating electron transfer at the trinuclear Cu center. O2 consumption was measured on a Clark type electrode during Mn oxidation by the recombinant Mn oxidase complex. Following the addition of MnCl2 to the enzyme, there is about a 30 s lag time before O2 consumption is detected across all runs (FIG. 7A). Starting with a higher concentration of MnCl2, results in a faster initial velocity of O2 consumption (FIG. 7B). […] This stoichiometry supports the MCO mechanism of the four electron reduction required to generate 2 mol H2O from 1 mol O2.
# Oxygen consumption was measured on a Rank Brothers LTD model 10 electrode with the polarizing voltage set to 630 mV. The 2 ml water-jacketed reaction cell was kept at 37° C. using a water bath. The instrument was calibrated by taking a zero measurement with Ar purged water and a 100% measurement with atmospheric oxygenated water assuming 214 μM O2 at […]. A computer interfaced with the electrode measured 02 every 1 s. Data collection began about 1 min before 10 μL of 1 mg/ml Mnx protein (^˜24 nM final if mass of recombinant Mn oxidase complex is 211 kDa) was added through the 2 mm diameter opening in the cap and allowed to equilibrate with 37° C. 20 mM HEPES pH 7.8 50 mM NaCl. Another minute of baseline reading was taken before adding 10 μL of various concentrations of MnCl2. The data was plotted Time (min) vs. % O2 remaining, if addition of MnCl2 is t=0. The initial O2 consumption velocities of all runs were plotted against starting MnCl2 concentration. Total O2 consumed was calculated by taking the difference of final from initial O2 concentrations then plotted against MnCl2 concentration and fitted with a linear regression, forced through the xy origin.
Molecule,kcat (B. licheniformis CotA) [s⁻¹],Km (Bacillus subtilis CotA) [µM],kcat (Bacillus subtilis CotA) [s⁻¹],Fe(II) kcat [1] [s⁻¹],Km [1] [µM],"2,6-DMP oxidation activity [2]",pH optimum of Mn oxidation [3],Mn(II) K0.5 ([3]; HEPES dialyzed protein) [µM],Mn(II) kcat ([3]; HEPES dialyzed protein) [s⁻¹],Mn(II) K0.5 ([3]; Tris dialyzed protein) [µM],Mn(II) kcat ([3]; Tris dialyzed protein) [s⁻¹],lag time before O2 consumption is detected [4] [s],lag time before O2 consumption is detected ([4]; listed as recombinant Mnx complex),"slope of MnCl2 added vs. O2 consumed ([4]; linear regression forced through the origin, 37° C., HEPES pH 7.8)"
"CCn1c(=NN=c2sc3cc(S(=O)(=O)O)ccc3n2CC)sc2cc(S(=O)(=O)O)ccc21 [ABTS, 2,2′-azino-bis(3-ethylbenzthiazoline-6-sulphonic acid)]",322,6.5,83,,,,,,,,,,,
B1,,,,0.0744 ± 0.00779,9,inactive,7.8,123 ± 7.00,16.1 ± 0.941,134.6 ± 9.16,12.9 ± 0.758,~30,about 30 s,about 0.252±0.0149
